We go through one molecule from patent US20210290676A1, “IMPROVING THE EFFICACY AND SAFETY OF ADOPTIVE CELLULAR THERAPIES” (University of Southern California, priority 2018, published 2021).

The nature of the experiment: Leukapheresis with and without mobilization and manufacturing of CAR-T/TCR-T cells from cancer patients. Format: in vivo, human. The following applies: mobilization prior to leukapheresis. The protocol: A study is conducted to compare the generation of cell therapy products from cancer patients who have received 2 or more cycles of prior chemotherapy. Patients with different types of different cancers (e.g., diffuse large B cell lymphoma, acute B-ALL, CLL, multiple myeloma, breast cancer, ovarian cancer, lung cancer etc.) are eligible. Leukapheresis products are collected from the subjects with and without mobilization with Perixafor (0.24 mg/kg subcutaneously daily on days 1-3). T cells are isolated and used for manufacturing of CAR-T and TCR-T cells using lentiviral mediated gene transduction as described in the preceding sections.

B1: G-CSF: cytokine, G-CSF (filgrastim, Amgen) (protein, chains of the INN, looked up)
chain: MTPLGPASSLPQSFLLKCLEQVRKIQGDGAALQEKLCATYKLCHPEELVLLGHSLGIPWAPLSSCPSQALQLAGCLSQLHSGLFLYQGLLQALEGISPELGPTLDTLQLDVADFATTIWQQMEELGMAPALQPTQGAMPAFASAFQRRAGGVLVASHLQSFLEVSYRVLRHLAQP
Take B1: the “yield of leukapheresis product for generation of CAR-T cells” value is “improve the yield”.
